In publication PMC10786891, “Massively parallel profiling of RNA-targeting CRISPR-Cas13d”:

T1: EsCas13d, nuclease-dead (Eubacterium siraeum, UniProt B0MS50, R295A;H300A;R849A;H854A)
T1 sequence: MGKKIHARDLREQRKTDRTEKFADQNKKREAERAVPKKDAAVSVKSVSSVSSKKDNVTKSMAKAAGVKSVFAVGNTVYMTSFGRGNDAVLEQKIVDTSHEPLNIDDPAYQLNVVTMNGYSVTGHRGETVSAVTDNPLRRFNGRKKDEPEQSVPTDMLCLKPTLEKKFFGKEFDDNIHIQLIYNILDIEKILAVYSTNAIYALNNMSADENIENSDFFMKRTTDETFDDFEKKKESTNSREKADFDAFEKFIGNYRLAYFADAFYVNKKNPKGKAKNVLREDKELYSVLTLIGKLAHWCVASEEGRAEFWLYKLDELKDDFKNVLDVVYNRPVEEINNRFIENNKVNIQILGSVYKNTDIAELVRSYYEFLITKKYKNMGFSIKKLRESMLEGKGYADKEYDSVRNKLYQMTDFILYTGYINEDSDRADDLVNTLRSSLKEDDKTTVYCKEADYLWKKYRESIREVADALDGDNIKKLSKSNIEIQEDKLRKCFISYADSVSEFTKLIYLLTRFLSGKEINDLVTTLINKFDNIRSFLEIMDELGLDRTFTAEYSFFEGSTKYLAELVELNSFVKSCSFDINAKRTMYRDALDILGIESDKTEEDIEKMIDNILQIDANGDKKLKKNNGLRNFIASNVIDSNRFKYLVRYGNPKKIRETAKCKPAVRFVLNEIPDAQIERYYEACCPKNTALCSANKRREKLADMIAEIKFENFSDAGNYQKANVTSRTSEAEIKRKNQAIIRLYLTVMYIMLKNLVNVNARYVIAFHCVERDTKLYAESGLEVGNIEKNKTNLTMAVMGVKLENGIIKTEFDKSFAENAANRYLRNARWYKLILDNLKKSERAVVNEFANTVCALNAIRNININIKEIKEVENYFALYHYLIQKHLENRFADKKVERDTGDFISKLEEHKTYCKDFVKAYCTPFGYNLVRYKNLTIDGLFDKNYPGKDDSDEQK


Target: T1, EsCas13d, nuclease-dead
Experiment: crRNA (strand 1, pre-loaded); Mg2+; 40 mM Tris-HCl pH 7.5, 150 mM NaCl, 6 mM MgCl2, 1 mM DTT, 0.1% Tween-20, 0.2 mg/ml BSA; 25 C; 10 min per concentration, then washed
Conditions: tags: His6-TwinStrep-SUMO cleaved; N-terminal SNAP kept (SNAP-Surface 488); label: 3' end held by stalled T7 RNA polymerase

Row | Binder | Kd
1 | target 1 G15A,U19A (mixed) RNA 1: CACCCGUGCAAAAAUGCAGGGGUCUAAAACUGAGCGGAUAACCUCUCUAUGG RNA 2: GGGAAUGGAUCCACAUCUACGAAUUCGUACCAAAGAAAGGUUAUCCGCUCACCGAGAUCGGAAGAGCACACGU | 60 ± 19 nM
2 | target 1 U10G,U19G (mixed) RNA 1: CACCCGUGCAAAAAUGCAGGGGUCUAAAACUGAGCGGAUAACCUCUCUAUGG RNA 2: GGGAAUGGAUCCACAUCUACGAAUUCGUACCAGAGAGAGGUGAUCCGCUCACCGAGAUCGGAAGAGCACACGU | 90 ± 40 nM
3 | target 1 insU 3' of 18,insC 3' of 13 (mixed) RNA 1: CACCCGUGCAAAAAUGCAGGGGUCUAAAACUGAGCGGAUAACCUCUCUAUGG RNA 2: GGGAAUGGAUCCACAUCUACGAAUUCGUACCAUAUGAGAGCGUUAUCCGCUCACCGAGAUCGGAAGAGCACACGU | 49 ± 7 nM
4 | target 1 G17C,C21U (mixed) RNA 1: CACCCGUGCAAAAAUGCAGGGGUCUAAAACUGAGCGGAUAACCUCUCUAUGG RNA 2: GGGAAUGGAUCCACAUCUACGAAUUCGUACUAUACAGAGGUUAUCCGCUCACCGAGAUCGGAAGAGCACACGU | 7.6 ± 0.7 nM
5 | target 1 A9C,A16G (mixed) RNA 1: CACCCGUGCAAAAAUGCAGGGGUCUAAAACUGAGCGGAUAACCUCUCUAUGG RNA 2: GGGAAUGGAUCCACAUCUACGAAUUCGUACCAUAGGGAGGUUCUCCGCUCACCGAGAUCGGAAGAGCACACGU | 68 ± 27 nM
6 | target 1 insU 3' of 20,insG 3' of 14 (mixed) RNA 1: CACCCGUGCAAAAAUGCAGGGGUCUAAAACUGAGCGGAUAACCUCUCUAUGG RNA 2: GGGAAUGGAUCCACAUCUACGAAUUCGUACCAUUAGAGAGGGUUAUCCGCUCACCGAGAUCGGAAGAGCACACGU | 18.9 ± 0.9 nM
7 | target 1 C4A,C22U (mixed) RNA 1: CACCCGUGCAAAAAUGCAGGGGUCUAAAACUGAGCGGAUAACCUCUCUAUGG RNA 2: GGGAAUGGAUCCACAUCUACGAAUUCGUAUCAUAGAGAGGUUAUCCGAUCACCGAGAUCGGAAGAGCACACGU | 9.2 ± 1 nM
8 | target 1 U19C,C21U (mixed) RNA 1: CACCCGUGCAAAAAUGCAGGGGUCUAAAACUGAGCGGAUAACCUCUCUAUGG RNA 2: GGGAAUGGAUCCACAUCUACGAAUUCGUACUACAGAGAGGUUAUCCGCUCACCGAGAUCGGAAGAGCACACGU | 5.98 ± 0.2 nM
9 | target 1 insG 3' of 14,insG 3' of 6 (mixed) RNA 1: CACCCGUGCAAAAAUGCAGGGGUCUAAAACUGAGCGGAUAACCUCUCUAUGG RNA 2: GGGAAUGGAUCCACAUCUACGAAUUCGUACCAUAGAGAGGGUUAUCCGGCUCACCGAGAUCGGAAGAGCACACGU | 10.7 ± 0.9 nM
10 | target 1 A9G,U19G (mixed) RNA 1: CACCCGUGCAAAAAUGCAGGGGUCUAAAACUGAGCGGAUAACCUCUCUAUGG RNA 2: GGGAAUGGAUCCACAUCUACGAAUUCGUACCAGAGAGAGGUUGUCCGCUCACCGAGAUCGGAAGAGCACACGU | 49 ± 14 nM
11 | target 1 G5U,C6A (mixed) RNA 1: CACCCGUGCAAAAAUGCAGGGGUCUAAAACUGAGCGGAUAACCUCUCUAUGG RNA 2: GGGAAUGGAUCCACAUCUACGAAUUCGUACCAUAGAGAGGUUAUCAUCUCACCGAGAUCGGAAGAGCACACGU | 24.3 ± 1.6 nM
12 | target 1 insA 3' of 12,insG 3' of 11 (mixed) RNA 1: CACCCGUGCAAAAAUGCAGGGGUCUAAAACUGAGCGGAUAACCUCUCUAUGG RNA 2: GGGAAUGGAUCCACAUCUACGAAUUCGUACCAUAGAGAGGAUGUAUCCGCUCACCGAGAUCGGAAGAGCACACGU | 49 ± 6 nM
13 | target 1 insC 3' of 5,insA 3' of 2 (mixed) RNA 1: CACCCGUGCAAAAAUGCAGGGGUCUAAAACUGAGCGGAUAACCUCUCUAUGG RNA 2: GGGAAUGGAUCCACAUCUACGAAUUCGUACCAUAGAGAGGUUAUCCGCCUCAACCGAGAUCGGAAGAGCACACGU | 7.87 ± 0.33 nM
14 | target 1 insG 3' of 4,insG 3' of 2 (mixed) RNA 1: CACCCGUGCAAAAAUGCAGGGGUCUAAAACUGAGCGGAUAACCUCUCUAUGG RNA 2: GGGAAUGGAUCCACAUCUACGAAUUCGUACCAUAGAGAGGUUAUCCGCGUCGACCGAGAUCGGAAGAGCACACGU | 4.72 ± 0.29 nM
15 | target 1 C6G,A20C (mixed) RNA 1: CACCCGUGCAAAAAUGCAGGGGUCUAAAACUGAGCGGAUAACCUCUCUAUGG RNA 2: GGGAAUGGAUCCACAUCUACGAAUUCGUACCCUAGAGAGGUUAUCGGCUCACCGAGAUCGGAAGAGCACACGU | 36 ± 6 nM
16 | target 1 C4A,U10C (mixed) RNA 1: CACCCGUGCAAAAAUGCAGGGGUCUAAAACUGAGCGGAUAACCUCUCUAUGG RNA 2: GGGAAUGGAUCCACAUCUACGAAUUCGUACCAUAGAGAGGUCAUCCGAUCACCGAGAUCGGAAGAGCACACGU | 5.53 ± 0.31 nM
17 | target 1 insC 3' of 16,insC 3' of 16 (mixed) RNA 1: CACCCGUGCAAAAAUGCAGGGGUCUAAAACUGAGCGGAUAACCUCUCUAUGG RNA 2: GGGAAUGGAUCCACAUCUACGAAUUCGUACCAUAGACCGAGGUUAUCCGCUCACCGAGAUCGGAAGAGCACACGU | 72 ± 22 nM
18 | target 1 insG 3' of 16,insA 3' of 15 (mixed) RNA 1: CACCCGUGCAAAAAUGCAGGGGUCUAAAACUGAGCGGAUAACCUCUCUAUGG RNA 2: GGGAAUGGAUCCACAUCUACGAAUUCGUACCAUAGAGGAAGGUUAUCCGCUCACCGAGAUCGGAAGAGCACACGU | 17.5 ± 0.9 nM
19 | target 1 insA 3' of 22,insC 3' of 14 (mixed) RNA 1: CACCCGUGCAAAAAUGCAGGGGUCUAAAACUGAGCGGAUAACCUCUCUAUGG RNA 2: GGGAAUGGAUCCACAUCUACGAAUUCGUACACAUAGAGACGGUUAUCCGCUCACCGAGAUCGGAAGAGCACACGU | 36 ± 6 nM
20 | target 1 G12U,U19G (mixed) RNA 1: CACCCGUGCAAAAAUGCAGGGGUCUAAAACUGAGCGGAUAACCUCUCUAUGG RNA 2: GGGAAUGGAUCCACAUCUACGAAUUCGUACCAGAGAGAGUUUAUCCGCUCACCGAGAUCGGAAGAGCACACGU | 35 ± 5 nM
21 | target 1 U8A,A9C (mixed) RNA 1: CACCCGUGCAAAAAUGCAGGGGUCUAAAACUGAGCGGAUAACCUCUCUAUGG RNA 2: GGGAAUGGAUCCACAUCUACGAAUUCGUACCAUAGAGAGGUUCACCGCUCACCGAGAUCGGAAGAGCACACGU | 8.9 ± 0.4 nM
22 | target 1 insU 3' of 14,insG 3' of 8 (mixed) RNA 1: CACCCGUGCAAAAAUGCAGGGGUCUAAAACUGAGCGGAUAACCUCUCUAUGG RNA 2: GGGAAUGGAUCCACAUCUACGAAUUCGUACCAUAGAGAUGGUUAUGCCGCUCACCGAGAUCGGAAGAGCACACGU | 38.1 ± 2.5 nM
23 | target 1 insU 3' of 9,insA 3' of 8 (mixed) RNA 1: CACCCGUGCAAAAAUGCAGGGGUCUAAAACUGAGCGGAUAACCUCUCUAUGG RNA 2: GGGAAUGGAUCCACAUCUACGAAUUCGUACCAUAGAGAGGUUAUUACCGCUCACCGAGAUCGGAAGAGCACACGU | 9.8 ± 0.4 nM
24 | target 1 insG 3' of 18,insG 3' of 8 (mixed) RNA 1: CACCCGUGCAAAAAUGCAGGGGUCUAAAACUGAGCGGAUAACCUCUCUAUGG RNA 2: GGGAAUGGAUCCACAUCUACGAAUUCGUACCAUAGGAGAGGUUAUGCCGCUCACCGAGAUCGGAAGAGCACACGU | 50 ± 4 nM
25 | target 1 C6G,C7U (mixed) RNA 1: CACCCGUGCAAAAAUGCAGGGGUCUAAAACUGAGCGGAUAACCUCUCUAUGG RNA 2: GGGAAUGGAUCCACAUCUACGAAUUCGUACCAUAGAGAGGUUAUUGGCUCACCGAGAUCGGAAGAGCACACGU | 8.06 ± 0.32 nM
26 | target 1 C4A,G5A (mixed) RNA 1: CACCCGUGCAAAAAUGCAGGGGUCUAAAACUGAGCGGAUAACCUCUCUAUGG RNA 2: GGGAAUGGAUCCACAUCUACGAAUUCGUACCAUAGAGAGGUUAUCCAAUCACCGAGAUCGGAAGAGCACACGU | 44 ± 7 nM
27 | target 1 C2G,U11A (mixed) RNA 1: CACCCGUGCAAAAAUGCAGGGGUCUAAAACUGAGCGGAUAACCUCUCUAUGG RNA 2: GGGAAUGGAUCCACAUCUACGAAUUCGUACCAUAGAGAGGAUAUCCGCUGACCGAGAUCGGAAGAGCACACGU | 13.6 ± 1.1 nM
28 | target 1 C4A,U11A (mixed) RNA 1: CACCCGUGCAAAAAUGCAGGGGUCUAAAACUGAGCGGAUAACCUCUCUAUGG RNA 2: GGGAAUGGAUCCACAUCUACGAAUUCGUACCAUAGAGAGGAUAUCCGAUCACCGAGAUCGGAAGAGCACACGU | 23.9 ± 1.8 nM
